Laboratory results: patent publication US20090226458A1

Target: Netrin-1-FlagM2 (recombinant netrin-1, Apotech)
Test: ELISA: DCC-5Fbn 100 ng coated, netrin-1 0 to 800 ng, IL3-R values subtracted

Substance: DCC-5Fbn (recombinant soluble fifth fibronectin type III domain of DCC) (from UniProt P43146 846-942) (receptor)
- Kd: 5 nM
